Experimental findings from publication PMC5673888, “Crystal structure of tripartite-type ABC transporter MacB from Acinetobacter baumannii” (Nature Communications, 2017) are described below.

Experiment [1] concerns the target MacB from Acinetobacter baumannii (Acinetobacter baumannii). Kind of experiment: crystal structure; MacB in 0.05% UDM, 10 mM ADPβS and 2 mM MgCl2 added; sitting drop vapour diffusion at 25 °C, 1.2–1.3 M sodium citrate, 100 mM Na-HEPES pH 7.2; Se-Met crystal with 2 mM ATP instead of ADPβS; 3.4 Å.
In the next experiment the target is T1, MacB (Acinetobacter baumannii, UniProt A0A0D8G707).
T1 construct: full length (664 residues inferred: stop at Leu655 removes C-terminal 10), N-terminal His6 tag, E. coli BL21(DE3), UDM-solubilized homodimer
Kind of experiment: X-ray crystal structure of complex ([…] Å). To be noted: co-crystallized with 10 mM ADPβS, 2 mM MgCl2; composite nucleotide-binding sites at NBD dimer interface.

A word on the stoichiometry N: it is the number of molecules, sites or subunits per partner or assembly. The compound “MacB from Acinetobacter baumannii (from UniProt A0A0D8G707 1-664) (natural protein)” gave a stoichiometry N in experiment [1] of 2.

As for `Nc1ncnc2c1ncn2[C@@H]1O[C@H](COP(=O)(O)OP(=O)(O)S)[C@@H](O)[C@H]1O` (some centres unmarked) [ADPβS], the “X-ray crystal structure of complex (3.4 Å)” value at MacB was “MacB was crystallized in the presence of adenosine-5′-(β-thio)-diphosphate (ADPβS)”.
